Test results: article PMC8964982

Biological target: discoidin domain receptor 1 (DDR1) (human (endogenous in primary human umbilical artery SMCs)) (UniProt Q08345)
Assay: atomic force microscopy

Chain of Collagen type I (Corning), P02454 152-1207; P02466 86-1125 (ligand) (P02454 152-1207): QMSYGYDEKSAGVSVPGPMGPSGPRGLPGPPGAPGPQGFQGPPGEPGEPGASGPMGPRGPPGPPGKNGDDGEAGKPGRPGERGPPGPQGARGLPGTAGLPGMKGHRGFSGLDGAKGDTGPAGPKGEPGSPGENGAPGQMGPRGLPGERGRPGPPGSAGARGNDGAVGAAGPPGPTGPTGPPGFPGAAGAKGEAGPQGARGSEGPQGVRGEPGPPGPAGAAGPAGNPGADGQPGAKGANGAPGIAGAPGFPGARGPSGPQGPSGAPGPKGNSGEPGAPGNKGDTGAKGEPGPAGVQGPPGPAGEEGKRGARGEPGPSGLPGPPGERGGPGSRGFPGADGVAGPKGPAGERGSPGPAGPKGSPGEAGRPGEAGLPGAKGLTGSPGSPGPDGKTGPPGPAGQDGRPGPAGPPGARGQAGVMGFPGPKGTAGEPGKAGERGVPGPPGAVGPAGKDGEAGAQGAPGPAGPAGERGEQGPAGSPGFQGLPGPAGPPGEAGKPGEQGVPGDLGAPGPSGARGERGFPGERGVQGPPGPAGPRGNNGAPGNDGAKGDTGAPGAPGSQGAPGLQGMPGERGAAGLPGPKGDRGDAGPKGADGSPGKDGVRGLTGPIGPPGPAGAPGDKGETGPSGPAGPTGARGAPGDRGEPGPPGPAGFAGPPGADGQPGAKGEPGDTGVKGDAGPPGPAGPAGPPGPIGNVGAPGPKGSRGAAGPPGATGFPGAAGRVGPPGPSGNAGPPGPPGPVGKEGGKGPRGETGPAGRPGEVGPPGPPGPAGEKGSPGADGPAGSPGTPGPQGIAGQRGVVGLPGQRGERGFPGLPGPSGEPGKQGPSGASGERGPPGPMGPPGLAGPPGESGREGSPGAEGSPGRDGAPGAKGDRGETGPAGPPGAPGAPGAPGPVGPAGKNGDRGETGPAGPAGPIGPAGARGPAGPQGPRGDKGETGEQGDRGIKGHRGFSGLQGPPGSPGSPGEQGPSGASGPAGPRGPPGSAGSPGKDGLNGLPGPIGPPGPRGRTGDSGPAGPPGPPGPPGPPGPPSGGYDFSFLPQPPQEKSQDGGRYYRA
Chain of Collagen type I (Corning), P02454 152-1207; P02466 86-1125 (ligand) (P02466 86-1125): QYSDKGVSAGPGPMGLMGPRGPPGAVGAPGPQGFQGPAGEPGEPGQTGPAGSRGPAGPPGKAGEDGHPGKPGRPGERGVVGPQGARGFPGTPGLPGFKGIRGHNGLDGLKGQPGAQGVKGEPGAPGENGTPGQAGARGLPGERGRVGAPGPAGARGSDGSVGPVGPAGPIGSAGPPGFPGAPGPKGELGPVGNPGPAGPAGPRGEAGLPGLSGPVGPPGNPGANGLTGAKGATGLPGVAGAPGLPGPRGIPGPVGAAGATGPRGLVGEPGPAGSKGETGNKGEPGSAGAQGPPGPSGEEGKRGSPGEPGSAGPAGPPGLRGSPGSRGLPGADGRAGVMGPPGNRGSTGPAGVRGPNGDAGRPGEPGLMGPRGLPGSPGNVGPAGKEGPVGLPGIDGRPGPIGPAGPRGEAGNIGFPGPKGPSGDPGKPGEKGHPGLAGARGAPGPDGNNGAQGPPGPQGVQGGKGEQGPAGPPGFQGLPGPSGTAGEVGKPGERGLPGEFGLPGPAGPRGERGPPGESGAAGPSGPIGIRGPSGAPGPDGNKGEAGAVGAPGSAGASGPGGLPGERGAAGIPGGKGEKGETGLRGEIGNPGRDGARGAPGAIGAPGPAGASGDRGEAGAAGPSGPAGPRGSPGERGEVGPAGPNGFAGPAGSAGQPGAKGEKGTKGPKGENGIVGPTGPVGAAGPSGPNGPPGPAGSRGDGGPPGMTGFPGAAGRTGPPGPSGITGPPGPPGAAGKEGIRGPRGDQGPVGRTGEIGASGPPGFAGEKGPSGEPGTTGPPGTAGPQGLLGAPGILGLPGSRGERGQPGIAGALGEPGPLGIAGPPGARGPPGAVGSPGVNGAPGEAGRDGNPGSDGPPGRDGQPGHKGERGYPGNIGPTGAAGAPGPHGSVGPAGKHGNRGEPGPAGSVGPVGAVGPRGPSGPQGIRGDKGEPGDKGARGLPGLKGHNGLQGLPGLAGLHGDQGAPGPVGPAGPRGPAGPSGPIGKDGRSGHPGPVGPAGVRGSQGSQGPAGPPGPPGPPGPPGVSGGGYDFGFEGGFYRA
Chain of discoidin domain receptor 1 (DDR1) (human (endogenous in primary human umbilical artery SMCs)) (Q08345 19-913): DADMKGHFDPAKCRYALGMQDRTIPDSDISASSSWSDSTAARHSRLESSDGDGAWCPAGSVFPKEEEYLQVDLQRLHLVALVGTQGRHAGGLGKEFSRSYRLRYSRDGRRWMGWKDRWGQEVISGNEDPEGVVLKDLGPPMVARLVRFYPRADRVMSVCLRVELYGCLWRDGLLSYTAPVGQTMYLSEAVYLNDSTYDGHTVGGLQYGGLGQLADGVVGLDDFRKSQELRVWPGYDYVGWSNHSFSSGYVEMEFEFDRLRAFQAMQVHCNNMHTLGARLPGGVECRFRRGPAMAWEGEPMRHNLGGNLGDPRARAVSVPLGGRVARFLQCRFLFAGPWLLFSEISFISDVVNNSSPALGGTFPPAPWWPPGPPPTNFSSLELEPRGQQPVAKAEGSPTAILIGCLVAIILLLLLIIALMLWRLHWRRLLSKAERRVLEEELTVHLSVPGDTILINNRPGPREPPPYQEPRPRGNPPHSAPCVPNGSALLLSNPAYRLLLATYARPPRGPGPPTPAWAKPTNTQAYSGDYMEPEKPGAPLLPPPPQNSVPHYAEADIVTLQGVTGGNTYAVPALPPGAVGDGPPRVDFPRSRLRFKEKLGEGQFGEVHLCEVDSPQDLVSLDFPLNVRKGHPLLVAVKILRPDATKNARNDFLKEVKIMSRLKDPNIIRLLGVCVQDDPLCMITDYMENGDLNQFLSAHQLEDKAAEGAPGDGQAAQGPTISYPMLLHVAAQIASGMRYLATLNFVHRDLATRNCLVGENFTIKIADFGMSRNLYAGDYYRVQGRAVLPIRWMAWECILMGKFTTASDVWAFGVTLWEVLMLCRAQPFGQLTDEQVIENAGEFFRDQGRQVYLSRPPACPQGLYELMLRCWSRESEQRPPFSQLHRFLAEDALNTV

adhesion probability (cells on soft gels): 18.3% | adhesion probability (cells on stiff gels): 32.4%
Substance: Collagen type I (Corning), P02454 152-1207; P02466 86-1125 (ligand)
